{
  "source": "patent US20230348564A1",
  "about": "“ANTI-CANCER PROTEINS” (UNICHEM LABORATORIES LTD, priority 2020, published 2023)",
  "molecules": {"B1": {"name": "SEQ ID NO. 2: recombinant lectin; variant of the S. rolfsii lectin amino acid sequence (reported as Rec-2 in WO 2010/095143) (protein)", "chain": "TYKITVRVYQTNPDAFFHPVEKTVWKYANGGTWTITDDQHVLTMGGSGTSGTLRFHADNGESFTATFGVHNYKRWCDIVTNLAADETGMVINQQYYSQKNREEARERQLSNYQVKNAKGRNFQIVYTEAEGNDLHANLIIG", "modifications": "In vitro synthesis"}},
  "key": {"[1]": {"system": "Meningioma (IOMM-Lee)", "assay": "cytotoxicity in Brain Tumor Cell lines by MTT assay", "details": "72 h"}, "[2]": {"system": "PANC-1", "assay": "Cell cycle analysis (PI stain)", "assay_type": "cell-based, Human", "details": "24 h", "description": "(§1) The cell lines were maintained in DMEM+10% FBS (heat inactivated) at 37° C. with 5% CO2, and 95% humidity. Antibiotics Penicillin (100 U/mL) and Streptomycin (100 μg/mL) were added to the medium.\n(§2) The stock solution of recombinant lectin having the amino acid sequence of SEQ ID NO. […] Doxorubicin was used as positive control and stock solution was prepared in DMSO.\n(§3) Cells were counted using hemocytometer and plated in culture plates at density of 0.5×10^6 cells/well in DMEM+10% FBS in 6-well plates. Cells were incubated overnight to allow the cell recovery and exponential growth. Following overnight incubation, cells were sera starved in DMEM+1% FBS for 4 h. […] Untreated cells were included as Control group for test item. Cells treated with Doxorubicin were included as Positive Control group. DMSO treated cells were included as control group for Doxorubicin. After treatment, cells were incubated for a time period of 24 h. Following incubation, the pro-apoptotic effect by cell cycle was determined as follows: Cell cycle reagent contains PI stain, which stains DNA of cells in different phases of cell cycle; Sub(G0/G1), G1, S, G2 and M. Cells in Sub(G0/G1) phase correspond to apoptotic cells.\n(§4) Cells were gently harvested into pre-labeled centrifuge tubes and centrifuged at 450 g for 5 min, RT (low brake). The supernatants were removed carefully (not to touch the pellet) and discarded. 1 mL of 1×PBS was added to the pellet and resuspended gently to make homogenous suspension. Cells were centrifuged at 450 g for 5 min, RT (low brake) (washing step). The supernatant was carefully removed leaving behind approx 100 μL of PBS. Cells were resuspended gently yet thoroughly in residual PBS. Ice-cold 70% ethanol (300 μLI) was added drop-wise into cells in each tube while vortexing at low speed (fixation step). Cells were stored at 4° C. for 24 h prior to staining.\n(§5) Ethanol fixed cells were centrifuged at 450 g for 5 min, RT (low brake). The supernatant was carefully removed (not to touch the pellet) and discarded. (The pellet might not be visible but makes a thin film on surface of tube). 1 mL of 1×PBS was added into pellet and resuspended gently. Cells were incubated for 1 min at RT. Cells were centrifuged at 450 g for 5 min, RT (low brake) (washing step). The supernatant was removed carefully leaving behind approx 20 μL-50 μL of PBS. 200 μL of Cell Cycle reagent was added into each tube.\n(§6) Cells were resuspended gently, mixed and were incubated for 30 min, RT, Dark. The stained samples were transferred into 96-well plates and acquired on flow cytometer (Guava technologies). Percentage of cells in Sub (G0/G1) phase were determined. Fold increase in apoptotic cells (treated with Test Items) was determined as compared to Control (untreated cells)."}, "[3]": {"system": "MDA-MB-231", "assay": "Cell cycle analysis (PI stain)", "assay_type": "cell-based, Human", "details": "24 h", "description": "as §1, §2, §3, §4, §5, §6"}, "[4]": {"system": "PANC-1"}},
  "data": [
    {"molecule": "B1", "values": [
      {"measurement": "IC50 Value", "setting": "[1]", "result": 18.37, "unit": "µg/mL"},
      {"measurement": "% Population of cells, Apoptotic Sub(G0/G1)", "setting": "[2]; 2.5 μg/mL", "result": 1.60, "unit": "%"},
      {"measurement": "% Population of cells, G0/G1", "setting": "[2]; 2.5 μg/mL", "result": 38.89, "unit": "%"},
      {"measurement": "% Population of cells, G2/M", "setting": "[2]; 2.5 μg/mL", "result": 24.83, "unit": "%"},
      {"measurement": "% Population of cells, S", "setting": "[2]; 2.5 μg/mL", "result": 9.89, "unit": "%"},
      {"measurement": "% Population of cells, Apoptotic Sub(G0/G1)", "setting": "[2]; 5 μg/mL", "result": 2.54, "unit": "%"},
      {"measurement": "% Population of cells, G0/G1", "setting": "[2]; 5 μg/mL", "result": 40.09, "unit": "%"},
      {"measurement": "% Population of cells, G2/M", "setting": "[2]; 5 μg/mL", "result": 23.83, "unit": "%"},
      {"measurement": "% Population of cells, S", "setting": "[2]; 5 μg/mL", "result": 10.31, "unit": "%"},
      {"measurement": "Fold Increase (wrt Control) Apoptotic Sub(G0/G1)", "setting": "[2]; 5 μg/mL", "result": 1.4, "unit": "fold"},
      {"measurement": "% Population of cells, Apoptotic Sub(G0/G1)", "setting": "[2]; 10 μg/mL", "result": 4.23, "unit": "%"},
      {"measurement": "% Population of cells, G0/G1", "setting": "[2]; 10 μg/mL", "result": 44.43, "unit": "%"},
      {"measurement": "% Population of cells, G2/M", "setting": "[2]; 10 μg/mL", "result": 23.92, "unit": "%"},
      {"measurement": "% Population of cells, S", "setting": "[2]; 10 μg/mL", "result": 10.15, "unit": "%"},
      {"measurement": "Fold Increase (wrt Control) Apoptotic Sub(G0/G1)", "setting": "[2]; 10 μg/mL", "result": 2.4, "unit": "fold"},
      {"measurement": "% Population of cells, Apoptotic Sub(G0/G1)", "setting": "[2]; 20 μg/mL", "result": 3.92, "unit": "%"},
      {"measurement": "% Population of cells, G0/G1", "setting": "[2]; 20 μg/mL", "result": 44.24, "unit": "%"},
      {"measurement": "% Population of cells, G2/M", "setting": "[2]; 20 μg/mL", "result": 23.79, "unit": "%"},
      {"measurement": "% Population of cells, S", "setting": "[2]; 20 μg/mL", "result": 10.83, "unit": "%"},
      {"measurement": "Fold Increase (wrt Control) Apoptotic Sub(G0/G1)", "setting": "[2]; 20 μg/mL", "result": 2.2, "unit": "fold"},
      {"measurement": "% Population of cells, Apoptotic Sub(G0/G1)", "setting": "[2]; 80 μg/mL", "result": 6.21, "unit": "%"},
      {"measurement": "% Population of cells, G0/G1", "setting": "[2]; 80 μg/mL", "result": 39.63, "unit": "%"},
      {"measurement": "% Population of cells, G2/M", "setting": "[2]; 80 μg/mL", "result": 27.41, "unit": "%"},
      {"measurement": "% Population of cells, S", "setting": "[2]; 80 μg/mL", "result": 9.58, "unit": "%"},
      {"measurement": "Fold Increase (wrt Control) Apoptotic Sub(G0/G1)", "setting": "[2]; 80 μg/mL", "result": 3.5, "unit": "fold"},
      {"measurement": "% Population of cells, Apoptotic Sub(G0/G1)", "setting": "[3]; 2.5 μg/mL", "result": 10.05, "unit": "%"},
      {"measurement": "% Population of cells, G0/G1", "setting": "[3]; 2.5 μg/mL", "result": 65.21, "unit": "%"},
      {"measurement": "% Population of cells, G2/M", "setting": "[3]; 2.5 μg/mL", "result": 12.97, "unit": "%"},
      {"measurement": "% Population of cells, S", "setting": "[3]; 2.5 μg/mL", "result": 6.10, "unit": "%"},
      {"measurement": "Fold Increase (wrt Control) Apoptotic Sub(G0/G1)", "setting": "[3]; 2.5 μg/mL", "result": 4.1, "unit": "fold"},
      {"measurement": "% Population of cells, Apoptotic Sub(G0/G1)", "setting": "[3]; 5 μg/mL", "result": 5.75, "unit": "%"},
      {"measurement": "% Population of cells, G0/G1", "setting": "[3]; 5 μg/mL", "result": 61.99, "unit": "%"},
      {"measurement": "% Population of cells, G2/M", "setting": "[3]; 5 μg/mL", "result": 15.40, "unit": "%"},
      {"measurement": "% Population of cells, S", "setting": "[3]; 5 μg/mL", "result": 8.15, "unit": "%"},
      {"measurement": "Fold Increase (wrt Control) Apoptotic Sub(G0/G1)", "setting": "[3]; 5 μg/mL", "result": 2.3, "unit": "fold"},
      {"measurement": "% Population of cells, Apoptotic Sub(G0/G1)", "setting": "[3]; 10 μg/mL", "result": 6.65, "unit": "%"},
      {"measurement": "% Population of cells, G0/G1", "setting": "[3]; 10 μg/mL", "result": 60.71, "unit": "%"},
      {"measurement": "% Population of cells, G2/M", "setting": "[3]; 10 μg/mL", "result": 15.50, "unit": "%"},
      {"measurement": "% Population of cells, S", "setting": "[3]; 10 μg/mL", "result": 7.36, "unit": "%"},
      {"measurement": "Fold Increase (wrt Control) Apoptotic Sub(G0/G1)", "setting": "[3]; 10 μg/mL", "result": 2.7, "unit": "fold"},
      {"measurement": "% Population of cells, Apoptotic Sub(G0/G1)", "setting": "[3]; 20 μg/mL", "result": 15.43, "unit": "%"},
      {"measurement": "% Population of cells, G0/G1", "setting": "[3]; 20 μg/mL", "result": 55.66, "unit": "%"},
      {"measurement": "% Population of cells, G2/M", "setting": "[3]; 20 μg/mL", "result": 13.35, "unit": "%"},
      {"measurement": "% Population of cells, S", "setting": "[3]; 20 μg/mL", "result": 6.55, "unit": "%"},
      {"measurement": "Fold Increase (wrt Control) Apoptotic Sub(G0/G1)", "setting": "[3]; 20 μg/mL", "result": 6.3, "unit": "fold"},
      {"measurement": "% Population of cells, Apoptotic Sub(G0/G1)", "setting": "[3]; 80 μg/mL", "result": 35.62, "unit": "%"},
      {"measurement": "% Population of cells, G0/G1", "setting": "[3]; 80 μg/mL", "result": 42.49, "unit": "%"},
      {"measurement": "% Population of cells, G2/M", "setting": "[3]; 80 μg/mL", "result": 10.14, "unit": "%"},
      {"measurement": "% Population of cells, S", "setting": "[3]; 80 μg/mL", "result": 8.09, "unit": "%"},
      {"measurement": "Fold Increase (wrt Control) Apoptotic Sub(G0/G1)", "setting": "[3]; 80 μg/mL", "result": 14.5, "unit": "fold"},
      {"measurement": "% Cytotoxicity", "setting": "[4]", "result": 60.8, "unit": "%"}
    ]}
  ]
}
